# Assay results taken from the Human Domainome abundance scans (Beltran et al. 2025).
# ± gives the uncertainty stated by the source.
# B1: POU domain, class 5, transcription factor 1, residues 134 to 212; numbered along this chain, Q01860 (parent)
# chain: EESQDIKALQKELEQFAKLLKQKRITLGYTQADVGLTLGVLFGKVFSQTTICRFEALQLSFKNMCKLRPLLQKWVEEAD
# Variants of: B1
# Test: abundance fitness (aPCA) (normalised: wild type 0, dead -1); higher = more abundant; growth selection in yeast, the domain comes from the species named
# Details: Homo sapiens
row,Variant,abundance fitness
1,EESQDIKALQKELEQFAKLLKQKAITLGYTQADVGLTLGVLFGKVFSQTTICRFEALQLSFKNMCKLRPLLQKWVEEAD,-0.859 ± 0.47
2,EESQDIKALQKELEQFAKLLKQKSITLGYTQADVGLTLGVLFGKVFSQTTICRFEALQLSFKNMCKLRPLLQKWVEEAD,-0.361 ± 0.18
3,EESQDIKALQKELEQFAKLLKQKQITLGYTQADVGLTLGVLFGKVFSQTTICRFEALQLSFKNMCKLRPLLQKWVEEAD,-0.391 ± 0.44
4,EESQDIKALQKELEQFAKLLKQKVITLGYTQADVGLTLGVLFGKVFSQTTICRFEALQLSFKNMCKLRPLLQKWVEEAD,-0.068 ± 0.22
5,EESQDIKALQKELEQFAKLLKQKRIILGYTQADVGLTLGVLFGKVFSQTTICRFEALQLSFKNMCKLRPLLQKWVEEAD,-0.313 ± 0.48
6,EESQDIKALQKELEQFAKLLKQKRIQLGYTQADVGLTLGVLFGKVFSQTTICRFEALQLSFKNMCKLRPLLQKWVEEAD,-0.123 ± 0.39
7,EESQDIKALQKELEQFAKLLKQKRISLGYTQADVGLTLGVLFGKVFSQTTICRFEALQLSFKNMCKLRPLLQKWVEEAD,0.329 ± 0.18
8,EESQDIKALQKELEQFAKLLKQKRICLGYTQADVGLTLGVLFGKVFSQTTICRFEALQLSFKNMCKLRPLLQKWVEEAD,-0.059 ± 0.46
9,EESQDIKALQKELEQFAKLLKQKRIALGYTQADVGLTLGVLFGKVFSQTTICRFEALQLSFKNMCKLRPLLQKWVEEAD,0.202 ± 0.15
10,EESQDIKALQKELEQFAKLLKQKRIRLGYTQADVGLTLGVLFGKVFSQTTICRFEALQLSFKNMCKLRPLLQKWVEEAD,0.129 ± 0.14
11,EESQDIKALQKELEQFAKLLKQKRIMLGYTQADVGLTLGVLFGKVFSQTTICRFEALQLSFKNMCKLRPLLQKWVEEAD,-0.256 ± 0.42
12,EESQDIKALQKELEQFAKLLKQKRIELGYTQADVGLTLGVLFGKVFSQTTICRFEALQLSFKNMCKLRPLLQKWVEEAD,0.04 ± 0.27
13,EESQDIKALQKELEQFAKLLKQKRIKLGYTQADVGLTLGVLFGKVFSQTTICRFEALQLSFKNMCKLRPLLQKWVEEAD,-0.414 ± 0.36
14,EESQDIKALQKELEQFAKLLKQKRIVLGYTQADVGLTLGVLFGKVFSQTTICRFEALQLSFKNMCKLRPLLQKWVEEAD,-0.212 ± 0.19
15,EESQDIKALQKELEQFAKLLKQKRILLGYTQADVGLTLGVLFGKVFSQTTICRFEALQLSFKNMCKLRPLLQKWVEEAD,0.004 ± 0.25
16,EESQDIKALQKELEQFAKLLKQKRIGLGYTQADVGLTLGVLFGKVFSQTTICRFEALQLSFKNMCKLRPLLQKWVEEAD,0.071 ± 0.12
17,EESQDIKALQKELEQFAKLLKQKRINLGYTQADVGLTLGVLFGKVFSQTTICRFEALQLSFKNMCKLRPLLQKWVEEAD,0.268 ± 0.45
18,EESQDIKALQKELEQFAKLLKQKRITCGYTQADVGLTLGVLFGKVFSQTTICRFEALQLSFKNMCKLRPLLQKWVEEAD,0.039 ± 0.19

row,Variant,abundance fitness
1,EESQDIKALQKELEQFAKLLKQKRITAGYTQADVGLTLGVLFGKVFSQTTICRFEALQLSFKNMCKLRPLLQKWVEEAD,-0.648 ± 0.21
2,EESQDIKALQKELEQFAKLLKQKRITEGYTQADVGLTLGVLFGKVFSQTTICRFEALQLSFKNMCKLRPLLQKWVEEAD,-0.842 ± 0.28
3,EESQDIKALQKELEQFAKLLKQKRITDGYTQADVGLTLGVLFGKVFSQTTICRFEALQLSFKNMCKLRPLLQKWVEEAD,-0.185 ± 0.25
4,EESQDIKALQKELEQFAKLLKQKRITIGYTQADVGLTLGVLFGKVFSQTTICRFEALQLSFKNMCKLRPLLQKWVEEAD,-0.051 ± 0.49
5,EESQDIKALQKELEQFAKLLKQKRITHGYTQADVGLTLGVLFGKVFSQTTICRFEALQLSFKNMCKLRPLLQKWVEEAD,-0.387 ± 0.41
6,EESQDIKALQKELEQFAKLLKQKRITGGYTQADVGLTLGVLFGKVFSQTTICRFEALQLSFKNMCKLRPLLQKWVEEAD,-0.387 ± 0.1
7,EESQDIKALQKELEQFAKLLGQKRITLGYTQADVGLTLGVLFGKVFSQTTICRFEALQLSFKNMCKLRPLLQKWVEEAD,-0.707 ± 0.18
8,EESQDIKALQKELEQFAKLLQQKRITLGYTQADVGLTLGVLFGKVFSQTTICRFEALQLSFKNMCKLRPLLQKWVEEAD,-0.2 ± 0.27
9,EESQDIKALQKELEQFAKLLPQKRITLGYTQADVGLTLGVLFGKVFSQTTICRFEALQLSFKNMCKLRPLLQKWVEEAD,-0.353 ± 0.3
10,EESQDIKALQKELEQFAKLLVQKRITLGYTQADVGLTLGVLFGKVFSQTTICRFEALQLSFKNMCKLRPLLQKWVEEAD,-0.373 ± 0.28
11,EESQDIKALQKELEQFAKLLSQKRITLGYTQADVGLTLGVLFGKVFSQTTICRFEALQLSFKNMCKLRPLLQKWVEEAD,-0.189 ± 0.14
12,EESQDIKALQKELEQFAKLLRQKRITLGYTQADVGLTLGVLFGKVFSQTTICRFEALQLSFKNMCKLRPLLQKWVEEAD,-0.191 ± 0.12
13,EESQDIKALQKELEQFAKLLAQKRITLGYTQADVGLTLGVLFGKVFSQTTICRFEALQLSFKNMCKLRPLLQKWVEEAD,-0.392 ± 0.19
14,EESQDIKALQKELEQFAVLLKQKRITLGYTQADVGLTLGVLFGKVFSQTTICRFEALQLSFKNMCKLRPLLQKWVEEAD,-0.466 ± 0.16
15,EESQDIKALQKELEQFAWLLKQKRITLGYTQADVGLTLGVLFGKVFSQTTICRFEALQLSFKNMCKLRPLLQKWVEEAD,-0.19 ± 0.18
16,EESQDIKALQKELEQFATLLKQKRITLGYTQADVGLTLGVLFGKVFSQTTICRFEALQLSFKNMCKLRPLLQKWVEEAD,0.074 ± 0.13
17,EESQDIKALQKELEQFASLLKQKRITLGYTQADVGLTLGVLFGKVFSQTTICRFEALQLSFKNMCKLRPLLQKWVEEAD,0.192 ± 0.13
